Sequences and labels used below:
T1: cynomolgus Trop-2-His protein (cynomolgus, UniProt P09758 27-274 (human entry))
T1 construct: also called cynmolgus Trop-His; Kactus Cat #TRP-CM121; not shown: His tag
T1 chain: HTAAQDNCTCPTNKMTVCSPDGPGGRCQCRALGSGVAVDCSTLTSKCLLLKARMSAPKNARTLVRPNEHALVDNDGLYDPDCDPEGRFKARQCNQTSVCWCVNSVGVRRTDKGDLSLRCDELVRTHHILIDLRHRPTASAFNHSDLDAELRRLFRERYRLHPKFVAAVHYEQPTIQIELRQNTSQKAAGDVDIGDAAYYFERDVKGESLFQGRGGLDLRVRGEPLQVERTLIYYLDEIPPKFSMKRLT

T2: human Trop-2-His protein (human, UniProt P09758 27-274)
T2 construct: extracellular domain; Assay paragraphs say only 'Trop-2-His'; also called hTrop-2; Kactus Cat #TRP-HM121; not shown: His tag
T2 sequence (looked up): T1 chain with V36M, N67S, S139G, V204I

B1: 69H10 (antibody, V domains shown)
VH: QEQLKESGGGLVQPGGSLKLSCKASGFDFNKYGVSWVRQAPGKGLEWIAYIYPAFHNTYYATWVNGRFTISSHNAQNTLYLQLNTLTAADTATYFCARDAGTTDYNFNLWGPGTLVTVSS
VL: DVVMTQTASPVSAAVGGTVTIKCQASQSIYSYLSWYQQKPGQPPKLLIYEASKLASGVSSRFSGSGYGTEFTLTISGVECADAATYYCQQALTVGNVDNPFGGGSEVVVK
notes: Rabbit-derived clone; LEM construct: VH + rabbit IgG CH1 + human IgG1 CH2-CH3
B2: 3E9 (antibody, V domains shown)
VH: B1 VH with K31N, T58R, T62N, H73D, L79V, T85S, T102S, N106K
VL: DVVMTQTPASVSAAVGGTVTIKCQASEDIESYLAWYQQKPGQPPKLLIYDASTLASGVSSRFSGSGYGTEFTLTISGVECADAATYYCQQDLTVGNVDNPFGGGSEVVVE
notes: as for B1
B3: 3A4 (antibody, V domains shown)
VH: B1 VH with K5V, K19T, A24G, K31E, N84H
VL: B2 VL with T20S, K22N, S31N, D50E, T53K, D91A, V94I, E110K
notes: as for B1
B4: 62A10 (antibody, V domains shown)
VH: QSLVESGGGLVQPEGSLTLTCKASGFDFNNYAVTWVRQAPGEGLEYIGFIGIRGHIYYANWAKGRFTISKTSSTTMTLQMTSLTVADTATYFCARGGLWTGNSYFDLWGPGTLVTVSS
VL: YDMTQTPASVEVAVGGTVTINCQASESISRYLAWYQQKPGQSPKPLIYRASTLASGVPSRFQGSGSGTEYTLTISDLECADAATYYCQQGYGYSTVDNAFGGGTEVVVK
notes: as for B1
B5: 71F10 (antibody, V domains shown)
VH: QSLEESGGGLVQPGASLTLTCTVSGFDFSSNAMTWVRQAPGEGLEYIGFIGIRGNIYYANWAKGRFTISKTSSTTVTLQMTSLTVADTATYFCARGGLWTGNSYFDLWGPGTLVTVSS
VL: B4 VL with E11S, V12A, S42P, Q62K, S66T, E69D, D97G
notes: as for B1
B6: 70E2 (antibody, V domains shown)
VH: B5 VH with Q12K, A15G, S16T, S30N, N31Y, E42K
VL: B4 VL with A13P, S27N, S29N, S42P, S51A, Q62K, T73S, D97G
notes: as for B1
B7: 73C2 (antibody, V domains shown)
VH: QSLEESGGGLVKPGGTLTLTCTVSGFDFSNYAVTWVRQAPGEGLEYIGFVGIYGDFYYANWAKGRFTISKTSSTTVTLQMPSLTVADTATYFCARGGLWTGNSYFDLWGPGTLVTVSS
VL: B4 VL with S29N, P39R, S42P, S51A, Q62K, D97G
notes: as for B1

Substitutions are numbered along the chain they refer to.

One test has as its target T1, cynomolgus Trop-2-His protein. In words: BLI (Gator Prime), LEM supernatant Ab on HFC probe. As for the experimental part:
(§1) After three times of regeneration and neutralization of HFC probe (Gator, Cat #160003), LEM transfection supernatant samples to be tested in K buffer was diluted 1:1 in K buffer and immobilized onto HFC probe. […] The association and dissociation of human or cynomolgus Trop-2-His antigen from antibody was measured on BLI machine Gator Prime. Affinity was calculated using Gator Bio analysis software. Blank control was used for reference subtraction. 1 μg/ml of Sacituzumab govitecan was used as positive control.
(§2) Table 23 below summarizes the binding affinity of exemplary anti-Trop-2 antibodies in LEM transfection supernatant samples to human and cynomolgus Trop-2 using Gator.
With B1, the affinity, expressed as Kd, was 0.893 nM; the dissociation rate constant (koff) worked out at 0.00053 s⁻¹; the kon came to 592000 M⁻¹ s⁻¹.

On to B2, for which binding was characterised by a dissociation constant (Kd) of 0.538 nM, the dissociation rate constant (koff) was determined as 0.00038 s⁻¹ and the kon stood at 888000 M⁻¹ s⁻¹.

B3 had a dissociation constant Kd of 1.17 nM, a koff of 0.00069 s⁻¹ and a kon of 729000 M⁻¹ s⁻¹.

For the molecule B4, the Kd stood at 1.27 nM, the koff worked out at 0.00092 s⁻¹ and the association rate constant (kon) is 726000 M⁻¹ s⁻¹.

In the case of B5, the Kd was determined as 0.755 nM, the off-rate constant (koff) was found to be 0.00054 s⁻¹ and the kon was 721000 M⁻¹ s⁻¹.

B6 gave a dissociation constant (Kd) of 0.892 nM, an off-rate constant (koff) of 0.00059 s⁻¹ and a kon of 657000 M⁻¹ s⁻¹.

B7 returned a Kd of 4.63 nM, an off-rate (koff) of 0.0017 s⁻¹ and an on-rate constant (kon) of 364000 M⁻¹ s⁻¹.

The next test deals with T2, human Trop-2-His protein. In words: BLI (Gator Prime), LEM supernatant Ab on HFC probe. As for the experimental part: as §1, §2
As to B1, binding was put at a Kd of 0.989 nM, the dissociation rate constant (koff) is 0.00046 s⁻¹ and the on-rate (kon) turned out to be 465000 M⁻¹ s⁻¹.

Molecule B2 registered a Kd of 0.675 nM, a koff of 0.00038 s⁻¹ and an on-rate (kon) of 568000 M⁻¹ s⁻¹.

Regarding B3, binding was characterised by a dissociation constant (Kd) of 1.38 nM, the koff was found to be 0.00069 s⁻¹ and the kon was determined as 500000 M⁻¹ s⁻¹.

The molecule B4 displayed a dissociation constant Kd of 0.959 nM, a koff of 0.00051 s⁻¹ and an on-rate (kon) of 532000 M⁻¹ s⁻¹.

The molecule B5 gave an equilibrium dissociation constant (Kd) of 0.696 nM, an off-rate (koff) of 0.00032 s⁻¹ and an on-rate (kon) of 459000 M⁻¹ s⁻¹.

Regarding B6, the Kd worked out at 0.871 nM, the dissociation rate constant (koff) stood at 0.00038 s⁻¹ and the kon was 430000 M⁻¹ s⁻¹.

Molecule B7 came in with a dissociation constant Kd of 3.85 nM, a koff of 0.0011 s⁻¹ and a kon of 284000 M⁻¹ s⁻¹.

For orientation: Kd means the constant that tells how readily two partners part at equilibrium. Broadly, the koff is the rate constant with which the complex falls apart. Higher therefore signals fast dissociation. The term kon denotes the rate constant with which the complex forms.

(Values after US20250206841A1 (ADEPT THERAPEUTICS, published 2025).)
